Results on two molecules are retold here after patent US20200347144A1 (SHANGHAI HYAMAB BIOTECH, published 2020).

Assay [1] concerns the target T1, mouse 4-1BB protein (extracellular domain) (mouse, UniProt P20334 24-187).
T1 construct: extracellular domain; also called mouse 4-1BB-his; mouse 4-1BB-hFc protein
T1 sequence (looked up): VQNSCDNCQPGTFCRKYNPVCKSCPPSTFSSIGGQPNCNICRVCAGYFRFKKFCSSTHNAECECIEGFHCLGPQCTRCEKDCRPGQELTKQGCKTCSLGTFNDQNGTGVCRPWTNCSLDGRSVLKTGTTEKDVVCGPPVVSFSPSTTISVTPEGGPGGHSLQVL
Kind of assay: ELISA, coated mouse 4-1BB; Ab 2 ug/ml. The protocol: (§1) The purified immunogen A (4-1BB-hFc), monkey 4-1BB-his, and mouse 4-1BB-his obtained in Example 1 [for the preparation method, see step 1 of Example 1, preparation of immunogen A], of which the extracellular domain of monkey-derived 4-1BB protein (purchased from ACRO biosystems), the extracellular domain of mouse 4-1BB protein (purchased from sino biological) or other immune detection point proteins respectively were diluted with PBS to a final concentration of 1.0 μg/mL, then added with […] per well to 96-well ELISA plate. It was sealed with plastic film and incubated at 4° C. overnight. The next day, the plate was washed twice with the plate-washing solution [PBS containing 0.01% (v/v) Tween20] and blocking solution [PBS containing 0.01% (v/v) Tween 20 and 1% (v/v) BSA] was added and blocked at room temperature for 2 hours. The blocking solution was discarded and 100 μl of the purified 4-1BB antibody obtained in Example 2 was added per well. After incubated at 37° C. for 2 hours, the plate was washed 3 times with a plate-washing solution [PBS containing 0.01% (v/v) Tween20]. A secondary antibody (purchased from Sigma) labeled with HRP (horseradish peroxidase) was added, and after incubated at 37° C. for 2 hours, the plate was washed 3 times with a plate-washing solution [PBS containing 0.01% (v/v) Tween20]. 100 μl of TMB substrate was added per well. After incubated for 30 minutes at room temperature, 100 μl of stop buffer (1.0N HCl) was added per well. The A450 nm values were read using an ELISA plate reader (SpectraMax 384plus, Molecular Device).
(In an ELISA, binding on a coated surface is turned into a signal by an enzyme label.)

Assay [2] concerns the target T1, mouse 4-1BB protein (extracellular …). The experiment in a line: ELISA, coated mouse 4-1BB; Ab 10 ug/ml. The protocol: as §1
For assay [3] the target is unchanged. Kind of assay: ELISA, coated mouse 4-1BB; Ab 0.4 ug/ml. Here is the method: as §1
Assay [4] has the same target. The experiment in a line: ELISA, coated mouse 4-1BB; Ab 0.016 ug/ml. The protocol:
as §1

Assay [5] deals with T2, monkey 4-1BB-his protein (monkey).
T2 construct: extracellular domain; Bought protein; also called extracellular domain of monkey-derived 4-1BB protein
Kind of assay: ELISA, coated monkey 4-1BB-his; Ab 2 ug/ml. Here is the method:
as §1

The target of assay [6] is T1, mouse 4-1BB protein (extracellular …). Kind of assay: ELISA, coated mouse 4-1BB; Ab 0.0001 ug/ml. The protocol: as §1
Assay [7] has the same target. The experiment in a line: ELISA, coated mouse 4-1BB; Ab 0.0032 ug/ml. Here is the method:
as §1

For assay [8], the target named is T2, monkey 4-1BB-his protein. The experiment in a line: ELISA, coated monkey 4-1BB-his; Ab 10 ug/ml. The protocol:
as §1

Assay [9] deals with T2, monkey 4-1BB-his protein. The experiment in a line: ELISA, coated monkey 4-1BB-his; Ab 0.4 ug/ml. The protocol:
as §1

Assay [10] concerns the target T2, monkey 4-1BB-his protein. The experiment in a line: ELISA, coated monkey 4-1BB-his; Ab 0.0001 ug/ml. The protocol: as §1
Assay [11] has as its target T2, monkey 4-1BB-his protein. Kind of assay: ELISA, coated monkey 4-1BB-his; Ab 0.0006 ug/ml. Here is the method:
as §1

The target of assay [12] is T3, monkey 4-1BB on CHOK1 cells (monkey).
T3 construct: whole, on cells; also called CHOK1-c4-1BB
The experiment in a line: FACS on CHOK1-c4-1BB cells, Alexa 488 secondary antibody, average fluorescence intensity. The source says:
The pIRES plasmid carrying the full-length gene of monkey-derived […] (the preparation method is the same as the preparation method of the pCpC vector carrying the human-derived IgG Fc fragment (hFc) in “Preparation of immunogen A” of the step (1) in Example 1, in which the database accession number of the amino acid sequence of the extracellular region of monkey 4-1BB protein (Phe19-Thr239) is G7PSE7) was transfected into CHOK1 cell line to obtain CHOK1 stable transfected cell line containing monkey 4-1BB (herein referred to as CHOK1-c4-1BB stable cell line). The CHOK1-h4-1BB stable cell line and the CHOK1-c4-1BB stable cell line were expanded and cultivated to 90% confluence in T-75 cell culture flasks. The medium was exhausted, and washed twice with HBSS buffer (Hanks Balanced Salt Solution, purchased from Invitrogen), and then the cells were treated and collected with enzyme-free cell dissociation solution (Versene solution, purchased from Life Technology). The cells were washed twice with HBSS buffer, and after cell counting, the cells were diluted with HBSS buffer to 2×10⁶ cells per ml, and 1% goat serum blocking solution was added, the percentage being the mass percentage. It was incubated on ice for 30 minutes, and then washed twice with HBSS buffer by centrifugation. The collected cells were suspended in FACS buffer (HBSS containing 1% BSA, the percentage was the mass percentage) to 2×10⁶ cells/mL, and 100 μl per well was added to a 96-well FACS reaction plate. The purified 4-1BB antibody test sample obtained in Example 2 was added, 100 microliters per well and incubated on ice for 2 hours. […] It was washed three times with FACS buffer by centrifugation, and 100 μl of fixative [4% (v/v) paraformaldehyde] per well was added to suspend cells, and washed twice with FACS buffer after 10 minutes by centrifugation. The cells were suspended with 100 microliters of FACS buffer, and the results were detected and analyzed with FACS (FACS Calibur, purchased from BD).

Assay [13] addresses T2, monkey 4-1BB-his protein. Kind of assay: ELISA: monkey 4-1BB-his coated at 1.0 µg/mL, antibody titrated, HRP secondary antibody, OD450. Here is the method: as §1
Assay [14] concerns the target T1, mouse 4-1BB protein (extracellular …). Kind of assay: ELISA: mouse 4-1BB protein coated at 1.0 µg/mL (target by Table 10; the legend paragraph 119 says monkey 4-1BB-hFc), antibody titrated, HRP secondary antibody, OD450. The protocol:
as §1

B1: 113F6C6 (antibody, V domains shown)
VH: QVQLVESGGGVVQPGRSLRLSCAASGLTFSSYGMHWVRQAPGKGLEWVAVIWYDGSNKYYADSVKGRFTISRDNSKNTLYLQMNSLRAEDTAVYYCAREEVLWFGELSYNYYYGMDVWGQGTTVTVSS
VL: DIQMTQSPSSLSASVGDRVTITCRASQGISNYLAWYQQKPGKVPKLLIYAASTLQSGVPSRFSGSGSGTDFTLTISSLQPEDVATYYCQKYNSVPLTFGGGTKVEIK
notes: also called 4-1BB fully human antibody 113F6C6; 113F6F6
As to B1, the OD450 nm in assay [1] turned out to be 0.18 OD450 nm; in assay [2], 0.25 OD450 nm; in assay [3] it was 0.08 OD450 nm; in assay [4], 0.05 OD450 nm; in assay [5], 2.2 OD450 nm; in [6], 0.05 OD450 nm. The OD450 nm in assay [7] was found to be 0.05 OD450 nm; in [8] it was 2.36 OD450 nm; in assay [9], 2.14 OD450 nm; in assay [10], 0.07 OD450 nm; in [11] it was 0.08 OD450 nm. Besides, the “EC50 (read off the curve)” value in assay [12] was around 0.1 µg/mL; in [13] it was around 0.05 µg/mL. The binding result in assay [14] is on record as “no binding (tested: 10 µg/ml)”.

B2: 57B3D10 (antibody, V domains shown)
VH: QVQLQESGPGLVKPSETLSLTCTVSGGSISSYYWSWIRQPPGKGLEWIGYIYYSGSTNYNPSLKSRVTISVDTSKSQFSLKLTSVTAADTAVYYCAKDSDYYGSGSYSYWYFDLWGRGTLVTVSS
VL: EIVMTQSPATLSVSPGERATLSCRASQSVSSNLAWYQQKPGQAPRLLIYGASTRAPGIPARFSGSGSGTEFTLTISSLQSEDFAVYYCQQYNNWPLTFGGGTKVEIK
notes: also called 4-1BB fully human antibody 57B3D10
With B2, the OD450 nm in assay [1] stood at 0.1 OD450 nm; in assay [2], 0.24 OD450 nm; in assay [3], 0.28 OD450 nm; in assay [4], 0.16 OD450 nm; in assay [5], 2.47 OD450 nm; in assay [6] it was 0.05 OD450 nm. Moreover, the OD450 nm was 0.2 OD450 nm in assay [7]; 2.42 OD450 nm in assay [8]; 2.44 OD450 nm in [9]; 0.08 OD450 nm in assay [10]; 0.1 OD450 nm in assay [11]. Moreover, the “EC50 (read off the curve)” value in [12] is around 0.1 µg/mL; in assay [13], around 0.03 µg/mL. Besides, the binding result in assay [14] was “no binding (tested: 10 µg/ml)”.

As usually defined, the EC50 (read off the curve) is the concentration giving half of the maximal effect.
